Experimental data reported in PMC5415421.

Molecular target: WDR74 isoform II, C-terminal GFP (human)
Test: co-IP

B1: Full-length mouse NVL2 (1–855), N-terminal One-Strep-Flag tag (enzyme)
chain: MKPRPGVFVDRKLKQRVIQYLSSNRCGKYVDTGILASDLQRLYSVDYGRRKRNAFRIQVEKVFSIISSEKELKNLKELEDGHLAKRARQDEEDEYTESYSDDDSNMEDYPDPQSANPMNSSLLSLYRRGNSESVSTTPKWGQREATTSTPLLTSKTGSVPLKTPARESEGGWFIDKTPGGKKESLPLDLSDDQSNSKKQDSEIQILKDSSLLESDKKRKGRAKGKGNKRKTENLQEVDGEIEALLQKKAKARSTELQISNVKFEDVGGNDATLKEVCKMLIHMRHPEVYQHLGVVPPRGVLLHGPPGCGKTLLAHAIAGELDLPILKVAAPEIVSGVSGESEQKLRELFDQAVSNAPCIVFIDEIDAITPKREVASKDMERRIVAQLLTCMDDLNNVAATARVLVIGATNRPDSLDPALRRAGRFDREVCLGIPDEAARERILQTLCRKLRLPETFNFCHLAHLTPGFVGADLMALCREAAMCAVNRVLMKQQAQQKKKPEIEGLPSEGDQEERLGAEPTSETQDELQRLLGLLRDQDPLSEEQMQGLCIELNDFIVALAEVQPSAKREGFVTVPNVTWADIGALEDIRDELIMAILAPVRNPDQFRTLGLGTPAGILLAGPPGCGKTLLAKAVANESGLNFISVKGPELLNMYVGESERAVRQVFQRAKNSAPCVIFFDEVDALCPRRSDRETGASVRVVNQLLTEMDGLETRQQVFILAATNRPDIIDPAILRPGRLDKTLFVGLPPPADRVAILKTITKNGTKPPLDEDVNLETIANDLRCNCYTGADLTALVREASLCALRQEITAQKNGVGAGELKVSHKHFEDAFKKVKPSISIKDQVMYEALQRSLSQ
With B1 the relative amount of NVL2 bound to the resin was 9.2%.
